# In PMC5935710, “Structure and mechanism of the two-component α-helical pore-forming toxin YaxAB” (Nature Communications, 2018):
# T1: YaxA (Y. enterocolitica, UniProt A1JM51 1-411)
# T1 construct: YaxA of Yersinia enterocolitica serovar 8, biovar 1 (ATCC 23715), ORF YE1984; 45.9 kDa; native mass spectrometry verified that the full-length protein was purified; the ORF was amplified from cDNA of ATCC 23715; The pore model 6EL1 holds YaxA residues 45-153 and 169-410; also called YaxA^WT; WT YaxA; not shown: His6, N-terminal, cleaved; SUMO, N-terminal, cleaved
# T1 sequence: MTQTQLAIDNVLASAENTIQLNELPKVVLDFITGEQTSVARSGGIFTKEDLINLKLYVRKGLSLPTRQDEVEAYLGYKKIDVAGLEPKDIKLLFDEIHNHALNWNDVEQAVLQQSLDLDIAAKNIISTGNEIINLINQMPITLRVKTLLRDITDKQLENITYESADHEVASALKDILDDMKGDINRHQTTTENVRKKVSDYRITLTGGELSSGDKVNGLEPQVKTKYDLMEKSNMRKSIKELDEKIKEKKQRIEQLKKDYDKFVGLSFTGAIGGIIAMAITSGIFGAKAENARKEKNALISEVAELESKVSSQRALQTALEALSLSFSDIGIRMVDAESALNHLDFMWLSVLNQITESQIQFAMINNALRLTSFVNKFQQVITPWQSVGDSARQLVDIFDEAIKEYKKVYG
# How the values were obtained:
# [1] = target: T1, YaxA; assay: SEC; purified YaxA and YaxB mixed in solution; ratio of the two in the complex from SDS-PAGE band intensities; settings: both partners purified
# [2] = target: the molecule itself; assay: cryo-EM structure; 1 mg each of YaxA and YaxB mixed at room temperature, Cymal-6 treated, Superose 6, exchanged into amphipol A8-35; 2 mg/mL; C10 symmetry imposed, 6.1 Å; a C9 class at 7.6 Å
# [3] = target: T1, YaxA; assay: negative-stain EM; YaxA, then YaxB (1.5-fold molar excess) on human erythrocyte ghosts; pores extracted with 1.5% Cymal-6, purified on Superose 6 and a 10-40% sucrose gradient; 0.1 mg/mL on grids, uranyl formate stain; settings: both partners purified
binder,measurement,setting,value
"YaxB (natural protein, YaxB of Yersinia enterocolitica serovar 8, biovar 1 (ATCC 23715), ORF YE1985; 39.3 kDa; the ORF was cloned behind His6 and a TEV site; the ORF was amplified from cDNA of ATCC 23715; The pore model 6EL1 holds YaxB residues 12-343; also called YE1985; not shown: His6, N-terminal, cleaved) MAEISTFPHSGLSYPDINFKIFSQGVKNISHLAQFKTTGVEVLQEKALRVSLYSQRLDVIVRESLSSLQVKLENTLALTYFTTLEEIDEALISQDIDEESKSEMRKERINIIKNLSNDITQLKQLFIEKTELLDKSSSDLHNVVIIEGTDKVLQAEQLRQKQLTEDIATKELERKEIEKKRDKIIEALDVIREHNLVDAFKDLIPTGENLSELDLAKPEIELLKQSLEITKKLLGQFSEGLKYIDLTDARKKLDNQIDTASTRLTELNRQLEQSEKLIAGVNAVIKIDQEKSAVVVEAEKLSRAWHIFIHEITALQGTSLNEVELSKPLIKQQIYLESLIKQLI",stoichiometry N,[1],1 YaxA:YaxB
same,stoichiometry N,[2],10
same,radial spokes (YaxA–YaxB dimers) per complex,[3],11 fold symmetry
